# In patent US20180117171A1, “IMMUNOCONJUGATES FOR PROGRAMMING OR REPROGRAMMING OF CELLS” (President and Fellows of Harvard College, priority 2015, published 2018):
# B1: CpG-OVA conjugate: OVA protein linked through maleimide to reduced thiol-CpG (conjugate, UniProt P01012 2-386, looked up)
# Ovalbumin: GSIGAASMEFCFDVFKELKVHHANENIFYCPIAIMSALAMVYLGAKDSTRTQINKVVRFDKLPGFGDSIEAQCGTSVNVHSSLRDILNQITKPNDVYSFSLASRLYAEERYPILPEYLQCVKELYRGGLEPINFQTAADQARELINSWVESQTNGIIRNVLQPSSVDSQTAMVLVNAIVFKGLWEKAFKDEDTQAMPFRVTEQESKPVQMMYQIGLFRVASMASEKMKILELPFASGTMSMLVLLPDEVSGLEQLESIINFEKLTEWTSSNVMEERKIKVYLPRMKMEEKYNLTSVLMAMGITDVFSSSANLSGISSAESLKISQAVHAAHAEINEAGREVVGSAEAGVDAASVSEEFRADHPFLFCIKHIATNAVLFFGRCVSP
# modifications: CpG oligonucleotide via maleimide linker
# How the values were obtained:
# [1] = tested on: bone marrow derived dendritic cells (BMDC); test: BMDC presentation of […] from CpG-OVA conjugate (flow cytometry); type: cell-based; conditions: 18 hours; compared to unconjugated CpG and OVA
# Description: CpG-OVA conjugate was cultured with bone marrow derived dendritic cells (BMDC) in vitro for 18 hours. BMDC presentation of […] was analyzed using flow cytometry and percentage of CD11c+ DCs presenting the […] peptide on the MHC-I molecule was quantified.
# [2] = release of conjugate from the MPS scaffold; type: physicochemical
# Description: FIG. 48 is a line graph showing the evaluation of the release kinetics of the GnRH-OVA conjugate from the MPS scaffold. The conjugate was loaded into the MPS scaffold for 8 hours at room temperature (RT).
# C57bl/6J mice were immunized with MPS scaffold containing 1 ug GM-CSF and 100 ug OVA, 1 ug GM-CSF, 100 ug CpG and 100 ug OVA (MPS vaccine) or 1 ug GM-CSF and 100 ug OVA conjugated to 100 ug CpG (MPS conjugate vaccine). After 7 days, peripheral blood was analyzed using […] tetramer and the percentage of […] specific T cells within CD3+CD8+ T cells was quantified. MPS conjugate vaccine increased the presence of […] specific CD8+ T cells by 2 fold compared with the MPS vaccine (FIG. 40, bottom).
molecule,measurement,setting,value
B1,CD11c+ DCs presenting SIINFEKL on MHC-I,[1],enhanced presentation
same,release from the MPS scaffold,[2],released in a sustained manner followed by a burst release
